# Data published in US20250230251A1 (Bristol-Myers Squibb, published 2025).
# B1: P20 (antibody, human IgG1, kappa)
# heavy: QVQLQQSGPGLVKPSETLSLTCTVSGGSINNYYWSWIRQPPGKGLEWIGYIFYSGTTNYNPSLKSRVTISVDTSKNQFSLKLSSVTAADTAVYYCARDVGIAARNSYYYVMDVWGQGTTVTVSSASTKGPSVFPLAPSSKSTSGGTAALGCLVKDYFPEPVTVSWNSGALTSGVHTFPAVLQSSGLYSLSSVVTVPSSSLGTQTYICNVNHKPSNTKVDKRVEPKSCDKTHTCPPCPAPEAEGAPSVFLFPPKPKDTLMISRTPEVTCVVVDVSHEDPEVKFNWYVDGVEVHNAKTKPREEQYNSTYRVVSVLTVLHQDWLNGKEYKCKVSNKALPAPIEKTISKAKGQPREPQVYTLPPSREEMTKNQVSLTCLVKGFYPSDIAVEWESNGQPENNYKTTPPVLDSDGSFFLYSKLTVDKSRWQQGNVFSCSVMHEALHNHYTQKSLSLSPG
# light: AIQLTQSPSSLSASVGDRVTITCRASQGISSALAWYQQKPGKAPKFLIYDASSLESGVPSRFSGSGSGTDFTLTISSLQPEDFATYYCQQFNSYPITFGQGTRLEIKRTVAAPSVFIFPPSDEQLKSGTASVVCLLNNFYPREAKVQWKVDNALQSGNSQESVTEQDSKDSTYSLSSTLTLSKADYEKHKVYACEVTHQGLSSPVTKSFNRGEC
# notes: Human IgG
# Assays:
# human IL-18Rβ on cells [1] = biological target: T1, human IL-18Rβ on cells (human, UniProt O95256 20-599); assay: cell-based or functional assay
# T1 sequence: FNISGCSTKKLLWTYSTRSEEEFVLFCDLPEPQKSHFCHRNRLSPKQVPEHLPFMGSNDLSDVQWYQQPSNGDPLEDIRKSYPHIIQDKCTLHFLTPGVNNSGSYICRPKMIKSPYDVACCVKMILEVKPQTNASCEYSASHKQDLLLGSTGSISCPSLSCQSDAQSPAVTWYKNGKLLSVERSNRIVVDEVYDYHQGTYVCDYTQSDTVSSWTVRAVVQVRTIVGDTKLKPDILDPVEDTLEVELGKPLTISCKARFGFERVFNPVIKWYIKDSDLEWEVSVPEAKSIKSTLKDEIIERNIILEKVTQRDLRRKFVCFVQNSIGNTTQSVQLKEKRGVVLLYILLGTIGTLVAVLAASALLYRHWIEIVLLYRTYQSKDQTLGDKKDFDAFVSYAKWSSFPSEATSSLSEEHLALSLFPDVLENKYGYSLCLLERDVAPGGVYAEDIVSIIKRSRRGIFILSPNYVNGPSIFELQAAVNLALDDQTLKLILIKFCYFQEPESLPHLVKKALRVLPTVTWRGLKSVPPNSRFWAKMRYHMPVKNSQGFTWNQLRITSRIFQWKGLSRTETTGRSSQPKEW
# human IL-18Rβ on cells [2] = biological target: T1, human IL-18Rβ on cells; assay: cell-based or functional assay; remark: listed apart in the source
# huIL-18Rβ-HisAvi [3] = biological target: T2, huIL-18Rβ-HisAvi (human, UniProt O95256 20-356, biotinylated in the Octet blocking assay); assay: SPR T200, mAb on anti-hFc, 37C, pH 6
# T2 construct: Soluble analyte in all SPR runs; captured on streptavidin sensors in the Octet assay; also called human IL-18Rβ; human IL-18Rβ-Avi-His
# T2 sequence: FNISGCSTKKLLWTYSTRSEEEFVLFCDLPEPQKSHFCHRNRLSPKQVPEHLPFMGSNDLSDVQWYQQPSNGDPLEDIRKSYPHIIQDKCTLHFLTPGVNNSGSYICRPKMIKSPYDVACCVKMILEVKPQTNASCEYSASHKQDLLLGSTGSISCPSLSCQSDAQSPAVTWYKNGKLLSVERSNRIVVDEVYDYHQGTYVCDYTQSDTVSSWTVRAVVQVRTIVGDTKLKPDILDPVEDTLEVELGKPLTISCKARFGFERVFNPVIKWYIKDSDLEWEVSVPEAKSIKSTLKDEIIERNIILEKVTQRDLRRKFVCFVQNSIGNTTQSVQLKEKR
# cyIL-18Rβ-HisAvi [4] = biological target: T3, cyIL-18Rβ-HisAvi (cynomolgus monkey); assay: SPR T200, mAb on anti-hFc, 37C, pH 6
# T3 construct: Soluble analyte in SPR; also called cyno IL-18Rβ; cynomolgus monkey IL-18Rβ
# T3 chain: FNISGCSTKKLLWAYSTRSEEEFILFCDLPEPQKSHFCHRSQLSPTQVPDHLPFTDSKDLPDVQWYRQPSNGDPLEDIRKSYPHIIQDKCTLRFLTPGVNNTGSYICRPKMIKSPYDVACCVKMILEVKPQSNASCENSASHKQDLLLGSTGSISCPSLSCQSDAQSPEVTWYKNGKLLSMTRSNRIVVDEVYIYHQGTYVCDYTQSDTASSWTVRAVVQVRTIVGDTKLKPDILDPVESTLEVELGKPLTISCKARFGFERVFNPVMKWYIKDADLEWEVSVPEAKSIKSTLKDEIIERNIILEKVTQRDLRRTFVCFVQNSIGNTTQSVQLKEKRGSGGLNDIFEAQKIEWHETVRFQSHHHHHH
# huIL-18Rβ-HisAvi [5] = biological target: T2, huIL-18Rβ-HisAvi; assay: SPR T200, mAb on anti-hFc, 37C, pH 6; remark: listed apart in the source
# cyIL-18Rβ-HisAvi [6] = biological target: T3, cyIL-18Rβ-HisAvi; assay: SPR T200, mAb on anti-hFc, 37C, pH 6
# huIL-18Rβ-HisAvi [7] = biological target: T2, huIL-18Rβ-HisAvi; assay: SPR T200, mAb on anti-hFc, 37C, pH 7.4
# huIL-18Rβ-HisAvi [8] = biological target: T2, huIL-18Rβ-HisAvi; assay: SPR T200, mAb on anti-hFc, 37C, pH 7.4; remark: listed apart in the source
# cyIL-18Rβ-HisAvi [9] = biological target: T3, cyIL-18Rβ-HisAvi; assay: SPR T200, mAb on anti-hFc, 37C, pH 7.4
# huIL-18Rβ-HisAvi [10] = biological target: T2, huIL-18Rβ-HisAvi; assay: SPR T200, mAb on anti-hFc, 37C, pH 7.4; remark: listed apart in the source
# cyIL-18Rβ-HisAvi [11] = biological target: T3, cyIL-18Rβ-HisAvi; assay: SPR T200, mAb on anti-hFc, 37C, pH 7.4
# huIL-18Rβ-HisAvi [12] = biological target: T2, huIL-18Rβ-HisAvi; assay: SPR T200, pH 7.4; sample stored at pH 6, T0
# huIL-18Rβ-HisAvi [13] = biological target: T2, huIL-18Rβ-HisAvi; assay: SPR T200, pH 7.4; sample stored at pH 8, 4 w 4C
# huIL-18Rβ-HisAvi [14] = biological target: T2, huIL-18Rβ-HisAvi; assay: SPR T200, pH 7.4; sample stored at pH 8, 4 w 40C
binder,measurement,setting,value
B1,"IC50, IL-18-induced IFNγ release, KG-1 cells",human IL-18Rβ on cells [1],0.2 nM
same,"IC50, LPS+IL-12 dependent IFNg production, human whole blood",human IL-18Rβ on cells [2],1.66 nM
same,apparent Kd (pooled screen),huIL-18Rβ-HisAvi [3],0.43 nM
same,apparent koff (pooled screen),huIL-18Rβ-HisAvi [3],0.00016 s⁻¹
same,apparent kon (pooled screen),huIL-18Rβ-HisAvi [3],380000 M⁻¹ s⁻¹
same,Kd,cyIL-18Rβ-HisAvi [4],1.6 nM
same,koff,cyIL-18Rβ-HisAvi [4],0.00028 s⁻¹
same,kon,cyIL-18Rβ-HisAvi [4],180000 M⁻¹ s⁻¹
same,apparent Kd (pooled screen),huIL-18Rβ-HisAvi [5],0.43 nM
same,apparent koff (pooled screen),huIL-18Rβ-HisAvi [5],0.00016 s⁻¹
same,apparent kon (pooled screen),huIL-18Rβ-HisAvi [5],380000 M⁻¹ s⁻¹
same,Kd,cyIL-18Rβ-HisAvi [6],1.6 nM
same,koff,cyIL-18Rβ-HisAvi [6],0.00028 s⁻¹
same,kon,cyIL-18Rβ-HisAvi [6],180000 M⁻¹ s⁻¹
same,apparent Kd (pooled screen),huIL-18Rβ-HisAvi [7],1.8 nM
same,apparent koff (pooled screen),huIL-18Rβ-HisAvi [7],0.00032 s⁻¹
same,apparent kon (pooled screen),huIL-18Rβ-HisAvi [7],180000 M⁻¹ s⁻¹
same,apparent Kd (pooled screen),huIL-18Rβ-HisAvi [8],0.51 nM
same,apparent koff (pooled screen),huIL-18Rβ-HisAvi [8],0.00017 s⁻¹
same,apparent kon (pooled screen),huIL-18Rβ-HisAvi [8],330000 M⁻¹ s⁻¹
same,Kd,cyIL-18Rβ-HisAvi [9],1.4 nM
same,koff,cyIL-18Rβ-HisAvi [9],0.00024 s⁻¹
same,kon,cyIL-18Rβ-HisAvi [9],180000 M⁻¹ s⁻¹
same,apparent Kd (pooled screen),huIL-18Rβ-HisAvi [10],0.51 nM
same,apparent koff (pooled screen),huIL-18Rβ-HisAvi [10],0.00017 s⁻¹
same,Kd,cyIL-18Rβ-HisAvi [11],1.4 nM
same,koff,cyIL-18Rβ-HisAvi [11],0.00024 s⁻¹
same,kon,cyIL-18Rβ-HisAvi [11],180000 M⁻¹ s⁻¹
same,apparent Kd (pooled screen),huIL-18Rβ-HisAvi [12],1.4 nM
same,apparent koff (pooled screen),huIL-18Rβ-HisAvi [12],0.00033 s⁻¹
same,apparent kon (pooled screen),huIL-18Rβ-HisAvi [12],230000 M⁻¹ s⁻¹
same,apparent Kd (pooled screen),huIL-18Rβ-HisAvi [13],1.5 nM
same,apparent koff (pooled screen),huIL-18Rβ-HisAvi [13],0.00035 s⁻¹
same,apparent kon (pooled screen),huIL-18Rβ-HisAvi [13],230000 M⁻¹ s⁻¹
same,apparent Kd (pooled screen),huIL-18Rβ-HisAvi [14],1.6 nM
same,apparent koff (pooled screen),huIL-18Rβ-HisAvi [14],0.00038 s⁻¹
same,apparent kon (pooled screen),huIL-18Rβ-HisAvi [14],240000 M⁻¹ s⁻¹
